Laboratory results: PMC12629592, “MCAK recognizes the nucleotide-dependent feature at growing microtubule ends” (eLife, 2025)
Each block holds one molecule with its values, some of them ahead of it.

How the values were obtained:
[1] = target: tubulin from porcine brain, polymerised into microtubules (porcine) (UniProt P02550); experiment: single-molecule TIRF microscopy; single-molecule localisation at growing microtubule ends (tubulin 12 μM): 1 nM GFP-MCAK with 1 mM ATP, 10 nM EB1-GFP or 1 nM XMAP215-GFP, each alone; apparent constants
[2] = target: the molecule itself; experiment: SEC; Superose 6 Increase 5/150 GL; BRB80 with 50 mM KCl and 1 mM ATP
[3] = target: tubulin from porcine brain, polymerised into microtubules (porcine) (UniProt P02550); experiment: single-molecule TIRF microscopy; binding events on the lattice of dynamic microtubules (tubulin 16 μM); GFP-MCAK with 1 mM AMPPNP
[4] = target: tubulin from porcine brain, polymerised into microtubules (porcine) (UniProt P02550); experiment: single-molecule TIRF microscopy; binding events at the minus-ends of dynamic microtubules; GFP-MCAK, 1 mM ATP; BRB80 + 50 mM KCl, 35°C; apparent constants, per tubulin dimer
[5] = target: tubulin from porcine brain, polymerised into microtubules (porcine) (UniProt P02550); experiment: single-molecule TIRF microscopy; binding events at the growing plus-end of dynamic microtubules (tubulin 16 μM); GFP-MCAK with 1 mM ADP; apparent constants, per tubulin dimer
[6] = target: tubulin from porcine brain, polymerised into microtubules (porcine) (UniProt P02550); experiment: single-molecule TIRF microscopy; binding events at the growing plus-end of dynamic microtubules (tubulin 16 μM); GFP-MCAK with 1 mM AMPPNP; apparent constants, per tubulin dimer
[7] = target: tubulin from porcine brain, polymerised into microtubules (porcine) (UniProt P02550); experiment: single-molecule TIRF microscopy; binding events at the growing plus-end of dynamic microtubules (tubulin 16 μM); GFP-MCAK without nucleotide (APO); apparent constants, per tubulin dimer
[8] = target: tubulin from porcine brain, polymerised into microtubules (porcine) (UniProt P02550); experiment: single-molecule TIRF microscopy; single-molecule localisation at growing microtubule ends (tubulin 12 μM): 1 nM GFP-MCAK with 1 mM ATP, 10 nM EB1-GFP or 1 nM XMAP215-GFP, each alone; apparent constants; remark: listed apart in the source
[9] = target: tubulin from porcine brain, polymerised into microtubules (porcine) (UniProt P02550); experiment: single-molecule TIRF microscopy; binding events on the lattice of dynamic microtubules (tubulin 16 μM) grown from immobilised GMPCPP seeds; 10 nM GFP-MCAK (10 nM K524A, 30 nM V298S); 1 mM ATP; BRB80 + 50 mM KCl, 35°C; apparent constants, per tubulin dimer
[10] = target: tubulin from porcine brain, polymerised into microtubules (porcine) (UniProt P02550); experiment: single-molecule TIRF microscopy; binding events at the growing plus-end (end region 162 nm FWHM) of dynamic microtubules (tubulin 16 μM) grown from immobilised GMPCPP seeds; 10 nM GFP-MCAK (10 nM K524A, 30 nM V298S); 1 mM ATP; BRB80 + 50 mM KCl, 2 mM GTP, 35°C; apparent constants, per tubulin dimer

Kd [1]: 722 µM
Molecule: EB1-GFP (from UniProt Q15691 1-268) (natural protein)

dwell time [3]: 1.46 s
Kd [4]: 40 µM
RE/L (kon at the end over kon on the lattice) [4]: 13
Kd [5]: 163 µM
RE/L (kon at the plus-end over kon on the lattice) [5]: 2
dwell time [5]: 0.46 s
Kd [6]: 61 µM
RE/L (kon at the plus-end over kon on the lattice) [6]: 11
dwell time [6]: 3.32 s
Kd [7]: 1.8 µM
RE/L (kon at the plus-end over kon on the lattice) [7]: 2
dwell time [7]: 1.89 s
dwell time of distally distributed molecules at the growing end [8]: 0.8 s
dwell time of proximally distributed molecules at the growing end [8]: 0.7 s
Kd [9]: 1060 µM
dwell time [9]: 0.62 s
kon [9]: 2800 M⁻¹ s⁻¹
Kd [10]: 69 µM
dwell time [10]: 0.75 s
effective dissociation constant (the microtubule end taken as one multivalent receptor, end length 160 nm) [10]: 260 nM
kon [10]: 22600 M⁻¹ s⁻¹
B1: GFP-MCAK (mitotic centromere-associated kinesin, wild type) (enzyme, UniProt Q99661 1-725, looked up)
chain: MAMDSSLQARLFPGLAIKIQRSNGLIHSANVRTVNLEKSCVSVEWAEGGATKGKEIDFDDVAAINPELLQLLPLHPKDNLPLQENVTIQKQKRRSVNSKIPAPKESLRSRSTRMSTVSELRITAQENDMEVELPAAANSRKQFSVPPAPTRPSCPAVAEIPLRMVSEEMEEQVHSIRGSSSANPVNSVRRKSCLVKEVEKMKNKREEKKAQNSEMRMKRAQEYDSSFPNWEFARMIKEFRATLECHPLTMTDPIEEHRICVCVRKRPLNKQELAKKEIDVISIPSKCLLLVHEPKLKVDLTKYLENQAFCFDFAFDETASNEVVYRFTARPLVQTIFEGGKATCFAYGQTGSGKTHTMGGDLSGKAQNASKGIYAMASRDVFLLKNQPCYRKLGLEVYVTFFEIYNGKLFDLLNKKAKLRVLEDGKQQVQVVGLQEHLVNSADDVIKMIDMGSACRTSGQTFANSNSSRSHACFQIILRAKGRMHGKFSLVDLAGNERGADTSSADRQTRMEGAEINKSLLALKECIRALGQNKAHTPFRESKLTQVLRDSFIGENSRTCMIATISPGISSCEYTLNTLRYADRVKELSPHSGPSGEQLIQMETEEMEACSNGALIPGNLSKEEEELSSQMSSFNEAMTQIRELEEKAMEELKEIIQQGPDWLELSEMTEQPDYDLETFVNKAESALAQQAKHFSALRDVIKALRLAMQLEEQASRQISSKKRPQ
notes: MCAK (mitotic centromere-associated kinesin, kinesin-13); GFP-MCAK monomer printed as 110 kDa; Dimer by size-exclusion chromatography; Used with 1 mM ATP, AMPPNP, ADP or without nucleotide (APO); Purification adapted from Helenius et al., 2006; The printed residue numbers (K524, V298, T537) and the 110 kDa mass fit whole human MCAK (surmised); also called MCAK‧ATP; MCAK‧AMPPNP; source: Sf9, …
stoichiometry N [2]: 2
